According to patent US20250326807A1 (published 2025):

Target: T1, Recombinantly expressed fused calprotectin (His6-linker-S100A9-linker-S100A8), product code B-RCAL, BÜHLMANN … (human, UniProt P06702 1-114; P05109 1-93)
T1 construct: Bought fusion protein; also called CP; human recombinant calprotectin
T1 sequence: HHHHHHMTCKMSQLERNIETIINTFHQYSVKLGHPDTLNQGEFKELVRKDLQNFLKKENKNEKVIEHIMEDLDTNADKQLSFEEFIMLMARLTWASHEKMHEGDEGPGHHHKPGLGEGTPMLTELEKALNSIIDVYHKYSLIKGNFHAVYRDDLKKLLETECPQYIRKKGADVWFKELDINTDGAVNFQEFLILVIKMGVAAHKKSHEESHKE
Test: fluorescence polarization, 20 nM fluorescent peptide, calprotectin titrated
Method: The reaction mixture was incubated at 30° C. for 1 hr, and the completion of the reaction was assessed by LCMS. The reaction was stopped by addition of HCOOH (200 μL) and the cyclized peptide was lyophilized. The final purification was performed as before with a reversed-phase C18 column (X-bridge peptide BEH C18 5 μm, 300 Å, 10×250 mm, Waters) applying a flow rate of 6 mL/min and an appropriate linear gradient in 40 min. Fractions containing the desired peptide were lyophilized. The purity of the peptides was assessed by analysing around 20 μg of peptide by RP-HPLC (1260 HPLC system, Agilent) using a C18 column (ZORBAX 300SB-C18, 5 μm, 300 Å, 4.6×250 mm, Agilent). Peptides were run at a flow rate of 1 mL min⁻¹ with a linear gradient of 0-100% of solvent B over 15 min (A: 94.9% H₂O, 5% ACN and 0.1% TFA; B: 99.9% ACN and 0.1% TFA). The mass was determined by electrospray ionization mass spectrometry (ESI-MS) in positive ion mode on a single quadrupole liquid chromatography mass spectrometer (LCMS-2020, Shimadzu). […] Fluorescence anisotropy was measured on a microwell plate reader (Infinite M200Pro, Tecan), with a filter for excitation at 485 nm and emission at 535 nm. Dissociation constant (Kd) was calculated using the following equation on Prism 5 (GraphPad): […]

B1: Peptide 3 Isomer 1 (RCPECVAFPMFQCHWYCG with cross-linked neighboring cysteines) (peptide)
peptide: RCPECVAFPMFQCHWYCG
modifications: neighboring cysteines cross-linked by chemical linkers (linker not named); N-terminal 5(6)-carboxyfluorescein; synthesised on rink amide AM resin
notes: Both pairs of neighboring cysteines bridged
Kd: ~24 nM
